Assay results as given in patent US20240182536A1 (MURAL ONCOLOGY, published 2024).

T1: IL-18 binding protein (IL-18BP) (UniProt O95998 31-194)
T1 sequence (looked up): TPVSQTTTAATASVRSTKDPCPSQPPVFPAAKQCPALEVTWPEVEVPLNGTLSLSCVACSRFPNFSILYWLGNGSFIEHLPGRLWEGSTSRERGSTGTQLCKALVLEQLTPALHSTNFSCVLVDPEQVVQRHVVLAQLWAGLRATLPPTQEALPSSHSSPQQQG

T2: IL-18 receptors on HEK-Blue IL-18 reporter cells (UniProt Q13478 19-541; O95256 20-599, limits assumed)
T2 sequence (looked up) 1: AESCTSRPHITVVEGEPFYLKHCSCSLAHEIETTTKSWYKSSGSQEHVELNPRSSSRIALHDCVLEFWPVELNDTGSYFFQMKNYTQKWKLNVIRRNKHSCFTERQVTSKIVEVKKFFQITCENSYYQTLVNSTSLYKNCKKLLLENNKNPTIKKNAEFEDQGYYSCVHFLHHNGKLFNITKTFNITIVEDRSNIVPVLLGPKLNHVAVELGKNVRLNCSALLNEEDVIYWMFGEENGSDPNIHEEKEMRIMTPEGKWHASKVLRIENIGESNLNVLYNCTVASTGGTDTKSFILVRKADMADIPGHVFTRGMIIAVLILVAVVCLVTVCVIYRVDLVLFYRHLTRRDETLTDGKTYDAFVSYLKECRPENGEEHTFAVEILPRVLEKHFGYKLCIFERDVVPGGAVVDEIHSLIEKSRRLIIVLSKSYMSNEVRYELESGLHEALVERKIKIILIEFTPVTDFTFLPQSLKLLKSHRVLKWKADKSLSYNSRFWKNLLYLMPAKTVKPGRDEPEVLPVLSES
T2 sequence (looked up) 2: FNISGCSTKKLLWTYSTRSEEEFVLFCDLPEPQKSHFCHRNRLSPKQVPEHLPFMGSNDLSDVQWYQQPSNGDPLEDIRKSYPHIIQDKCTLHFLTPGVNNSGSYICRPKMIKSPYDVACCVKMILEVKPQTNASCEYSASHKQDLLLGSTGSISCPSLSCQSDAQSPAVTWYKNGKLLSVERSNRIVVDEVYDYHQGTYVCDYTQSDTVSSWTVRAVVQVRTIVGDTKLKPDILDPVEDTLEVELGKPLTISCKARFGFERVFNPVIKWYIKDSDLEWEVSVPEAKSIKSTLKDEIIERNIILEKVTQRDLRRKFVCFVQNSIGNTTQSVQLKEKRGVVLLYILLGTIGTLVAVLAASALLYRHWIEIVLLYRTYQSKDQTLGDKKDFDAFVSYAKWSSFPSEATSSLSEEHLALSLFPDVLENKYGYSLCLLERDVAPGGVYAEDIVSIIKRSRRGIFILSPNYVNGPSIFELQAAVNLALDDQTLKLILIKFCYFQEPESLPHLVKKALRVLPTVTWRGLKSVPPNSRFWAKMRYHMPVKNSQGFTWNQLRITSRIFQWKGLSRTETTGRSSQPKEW


Key:
[1] = target: T1, IL-18 binding protein (IL-18BP); experiment: cell-based or functional assay
[2] = target: T2, IL-18 receptors on HEK-Blue IL-18 …; experiment: cell-based or functional assay

| Binder | Activity, +100 nM BP, DF-1000002 [1] | Activity, +100 nM BP, DF-5000003 [1] | Activity, +100 nM BP, DF-25000004 [1] | Ratio (-BP/+BP), DF-1000005 [1] | Ratio (-BP/+BP), DF-5000006 [1] | Ratio (-BP/+BP), DF-25000007 [1] | Activity, No BP, DF-100000 [2] | Activity, No BP, DF-500000 [2] | Activity, No BP, DF-2500000 [2] |
| --- | --- | --- | --- | --- | --- | --- | --- | --- | --- |
| IL-18 variant G3L, E6Y, D54T, T63S, N91Y, R104Q (ligand) YFLKLYSKLSVIRNLNDQVLFIDQGNRPLFEDMTDSDMRDNAPRTIFIISMYKTSQPRGMAVSISVKSEKISTLSSENKIISFKEMNPPDYIKDTKSDIIFFQQSVPGHDNKMQFESSSYEGYFLASEKERDLFKLILKKEDELGDRSIMFTVQNED | 2.04 | 1.92 | 1.45 | 1.05 | 1.05 | 1.17 | 2.14 | 2.02 | 1.69 |
| IL-18 variant G3P, E6H, N91L (ligand) YFPKLHSKLSVIRNLNDQVLFIDQGNRPLFEDMTDSDMRDNAPRTIFIISMYKDSQPRGMAVTISVKSEKISTLSSENKIISFKEMNPPDLIKDTKSDIIFFQRSVPGHDNKMQFESSSYEGYFLASEKERDLFKLILKKEDELGDRSIMFTVQNED | 1.52 | 0.93 | 0.33 | 0.95 | 0.97 | 0.87 | 1.45 | 0.9 | 0.29 |
| IL-18 variant G3P, E6K, D54Y, S55P, T63S, N91S, R104Q (ligand) YFPKLKSKLSVIRNLNDQVLFIDQGNRPLFEDMTDSDMRDNAPRTIFIISMYKYPQPRGMAVSISVKSEKISTLSSENKIISFKEMNPPDSIKDTKSDIIFFQQSVPGHDNKMQFESSSYEGYFLASEKERDLFKLILKKEDELGDRSIMFTVQNED | 1.8 | 1.35 | 0.77 | 0.97 | 0.97 | 0.93 | 1.75 | 1.32 | 0.72 |
| IL-18 variant G3D, E6G, K53G, D54A, T63S, N91Y, R104Q (ligand) YFDKLGSKLSVIRNLNDQVLFIDQGNRPLFEDMTDSDMRDNAPRTIFIISMYGASQPRGMAVSISVKSEKISTLSSENKIISFKEMNPPDYIKDTKSDIIFFQQSVPGHDNKMQFESSSYEGYFLASEKERDLFKLILKKEDELGDRSIMFTVQNED | 1.33 | 0.73 | 0.19 | 1.02 | 0.98 | 1.14 | 1.36 | 0.72 | 0.21 |
| IL-18 variant G3Q, E6H, K53T, D54S, S55Y, N91Y, R104K (ligand) YFQKLHSKLSVIRNLNDQVLFIDQGNRPLFEDMTDSDMRDNAPRTIFIISMYTSYQPRGMAVTISVKSEKISTLSSENKIISFKEMNPPDYIKDTKSDIIFFQKSVPGHDNKMQFESSSYEGYFLASEKERDLFKLILKKEDELGDRSIMFTVQNED | 1.48 | 0.88 | 0.29 | 1.03 | 1.08 | 1.08 | 1.52 | 0.95 | 0.31 |
| IL-18 variant G3P, E6K, D54Y, S55P, Q56H, T63S, N91S, R104Q (ligand) YFPKLKSKLSVIRNLNDQVLFIDQGNRPLFEDMTDSDMRDNAPRTIFIISMYKYPHPRGMAVSISVKSEKISTLSSENKIISFKEMNPPDSIKDTKSDIIFFQQSVPGHDNKMQFESSSYEGYFLASEKERDLFKLILKKEDELGDRSIMFTVQNED | 1.69 | 1.08 | 0.54 | 0.96 | 1.02 | 0.98 | 1.63 | 1.1 | 0.53 |
| IL-18 variant G3P, E6K, D54Y, S55P, T63S, N91S, R104Q, Q154R (ligand) YFPKLKSKLSVIRNLNDQVLFIDQGNRPLFEDMTDSDMRDNAPRTIFIISMYKYPQPRGMAVSISVKSEKISTLSSENKIISFKEMNPPDSIKDTKSDIIFFQQSVPGHDNKMQFESSSYEGYFLASEKERDLFKLILKKEDELGDRSIMFTVRNED | 1.51 | 0.81 | 0.39 | 0.99 | 1.16 | 0.93 | 1.49 | 0.94 | 0.36 |
| IL-18 variant G3L, E6S, D54T, T63S, N91Y, R104Q (ligand) YFLKLSSKLSVIRNLNDQVLFIDQGNRPLFEDMTDSDMRDNAPRTIFIISMYKTSQPRGMAVSISVKSEKISTLSSENKIISFKEMNPPDYIKDTKSDIIFFQQSVPGHDNKMQFESSSYEGYFLASEKERDLFKLILKKEDELGDRSIMFTVQNED | 2.06 | 1.95 | 1.44 | 1.02 | 1.02 | 1.2 | 2.11 | 1.98 | 1.73 |
| IL-18 variant G3Q, E6Q, K53T, D54W, S55F, N91Y (ligand) YFQKLQSKLSVIRNLNDQVLFIDQGNRPLFEDMTDSDMRDNAPRTIFIISMYTWFQPRGMAVTISVKSEKISTLSSENKIISFKEMNPPDYIKDTKSDIIFFQRSVPGHDNKMQFESSSYEGYFLASEKERDLFKLILKKEDELGDRSIMFTVQNED | 1.14 | 0.45 | 0.14 | 1.08 | 1.21 | 1.2 | 1.23 | 0.54 | 0.17 |
